From publication PMC4155686, “Oleoyl Coenzyme A Regulates Interaction of Transcriptional Regulator RaaS (Rv1219c) with DNA in Mycobacteria*” (The Journal of Biological Chemistry, 2014)

T1: RaaS wild type (Mycobacterium tuberculosis, UniProt O86312 1-212)
T1 sequence: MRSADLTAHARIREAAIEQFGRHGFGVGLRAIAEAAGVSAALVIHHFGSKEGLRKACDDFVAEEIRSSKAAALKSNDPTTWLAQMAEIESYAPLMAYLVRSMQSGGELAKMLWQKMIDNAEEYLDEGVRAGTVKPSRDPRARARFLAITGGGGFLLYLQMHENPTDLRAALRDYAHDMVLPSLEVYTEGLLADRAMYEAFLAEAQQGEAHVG


Key:
[1] = target: the molecule itself; assay: small-angle X-ray scattering; protein alone in solution at 1 and 3 mg/ml, data extrapolated to infinite dilution; apparent molecular mass from I(0)
[2] = target: T1, RaaS wild type; assay: fluorescence anisotropy; 4 nM DNA; conditions: protein: recombinant; chain copies: 2

| Binder | stoichiometry N [1] | Kd [2] |
| --- | --- | --- |
| RaaS (regulator of antimicrobial-assisted survival), Rv1219c, wild type (natural protein, also called wild-type RaaS) MRSADLTAHARIREAAIEQFGRHGFGVGLRAIAEAAGVSAALVIHHFGSKEGLRKACDDFVAEEIRSSKAAALKSNDPTTWLAQMAEIESYAPLMAYLVRSMQSGGELAKMLWQKMIDNAEEYLDEGVRAGTVKPSRDPRARARFLAITGGGGFLLYLQMHENPTDLRAALRDYAHDMVLPSLEVYTEGLLADRAMYEAFLAEAQQGEAHVG | 2 |  |
| Pr14F/Pr14R (ATTO 647N) (dsDNA) DNA 1: GGGATGAACGTACGTTTAATATCCTGAACATGCGTTCAG DNA 2: GGGCTGAACGCATGTTCAGGATATTAAACGTACGTTCAT |  | 31 ± 6 nM |
